The results in this text go back to patent publication US20180291110A1 (Hoffmann-La Roche, published 2018).

In general, Kd refers to the equilibrium constant for the complex coming apart. The low end stands for tighter binding, the high end for weaker binding. As usually defined, the koff is the rate constant with which the complex falls apart. A word on the kon: it is the rate constant with which the complex forms. A higher kon goes with fast association.

B1: Pertuzumab aff.mat. clone B2 with common light chain (Fab, V domains shown)
VH: EVQLVESGGGLVQPGGSLRLSCAASGFTFNDYTMDWFRQAPGKGLEWVADVNPNSGGSIYNQRFKGRFTLSVDRSKNTLYLQMNSLRAEDTAVYYCARNLGPNFYFDYWGQGTLVTVSS
VL: DIQMTQSPSSLSASVGDRVTITCKASQDVSTAVAWYQQKPGKAPKLLIYSASFRYTGVPSRFSGSRSGTDFTLTISSLQPEDFATYYCQQHYTTPPTFGQGTKVEIK
notes: bacterial Fab
B2: Pertuzumab aff.mat. clone C8 with common light chain (Fab, V domains shown)
VH: B1 VH with N30T, F37V, Y60M, Q62R, N103S
VL: B1 VL
notes: bacterial Fab
B3: Pertuzumab aff.mat. clone A1 with common light chain (Fab, V domains shown)
VH: B1 VH with N30T, F37V, Y60V, N103W
VL: B1 VL
notes: bacterial Fab
B4: Pertuzumab aff.mat. clone D1 with common light chain (Fab, V domains shown)
VH: B1 VH with F37V, N103F
VL: B1 VL
notes: bacterial Fab with Flag-tag, from supernatant
B5: Pertuzumab HC x Pertuzumab (Tras.L3) LC (antibody, V domains shown)
VH: B1 VH with N30T, F37V, N103S
VL: B1 VL with T31I, A32G, F53Y, R66G
notes: human IgG
B6: Trastuzumab HC x Pertuzumab (Tras.L3) LC (antibody, V domains shown)
VH: not shown
VL: B1 VL with T31I, A32G, F53Y, R66G
notes: human IgG
B7: 4/94 SEQ ID NO 199 / murine VL (antibody, V domains shown)
VH: QVQLQESGPGLVKPSETLSLTCTVSGFNIKDTYIHWVIQRPGKGLEWIGRIDPANGDTKSDPSLQSRVTISADTSKNQASLKLSSVTAADTAVYYCVRDYLYPYYFDFWGQGTTVTVSS
VL: KIVMTQSPKSMSMSVGERVTLNCRASESVDTYVSWYQQKPEQSPELLIYGASNRYTGVPDRFTGSGSATDFTLTISSVQAEDLADYYCGQTYNYPLTFGAGTKLELKR
B8: 4/94 SEQ ID NO 200 / murine VL (antibody, V domains shown)
VH: EVQLVESGGGLVQPGGSLRLSCAASGFNIKDTYIHWVIQAPGKGLEWVGRIDPANGDTKSDPSVQVRATISADTSKNTAYLQMNSLRAEDTAVYYCVRDYLYPYYFDFWGQGTTVTVSS
VL: B7 VL
B9: 4/94 SEQ ID NO 199 / SEQ ID NO 207 (antibody, V domains shown)
VH: B7 VH
VL: KIVLTQSPGTLSLSPGERATLSCRASESVDTYVSWYQQKPGQAPRLLIYGASNRYTGVPDRFSGSGSGTDFTLTISRLEPEDFADYYCGQTYNYPLTFGQGTKLEI
B10: 4/94 SEQ ID NO 199 / SEQ ID NO 208 (antibody, V domains shown)
VH: B7 VH
VL: B9 VL with K1E
B11: 4/94 SEQ ID NO 199 / SEQ ID NO 209 (antibody, V domains shown)
VH: B7 VH
VL: B9 VL with V58I
B12: 4/94 SEQ ID NO 197 / SEQ ID NO 201 (antibody, V domains shown)
VH: QVQLVQSGAEVKKPGSSVKVSCKASGFNIKDTYIHWVIQAPGQGLEWMGRIDPANGDTKSDPKFQGRVTITADESTSTAYMELSSLRSEDTAVYYCVRDYLYPYYFDFWGQGTTVTVSS
VL: KIQMTQSPSSLSASVGDRVTITCRASESVDTYVSWYQQKPGKAPKLLIYGASNRYTGVPSRFSGSGSGTDFTLTISSLQPEDFADYYCGQTYNYPLTFGQGTKLEI
B13: 4/94 SEQ ID NO 200 / SEQ ID NO 201 (antibody, V domains shown)
VH: B8 VH
VL: B12 VL
B14: 4/94 SEQ ID NO 199 / SEQ ID NO 201 (antibody, V domains shown)
VH: B7 VH
VL: B12 VL
B15: 4/94 SEQ ID NO 196 / SEQ ID NO 207 (antibody, V domains shown)
VH: B12 VH with S16A, E74T, A79V
VL: B9 VL
B16: 4/94 SEQ ID NO 198 / SEQ ID NO 207 (antibody, V domains shown)
VH: B12 VH with A40R
VL: B9 VL
B17: 4/94 SEQ ID NO 198 / SEQ ID NO 201 (antibody, V domains shown)
VH: B12 VH with A40R
VL: B12 VL
B18: 4/94 SEQ ID NO 198 / SEQ ID NO 208 (antibody, V domains shown)
VH: B12 VH with A40R
VL: B9 VL with K1E
B19: 4/94 SEQ ID NO 197 / SEQ ID NO 208 (antibody, V domains shown)
VH: B12 VH
VL: B9 VL with K1E
B20: 4/94 SEQ ID NO 197 / SEQ ID NO 207 (antibody, V domains shown)
VH: B12 VH
VL: B9 VL
B21: 4/94 SEQ ID NO 196 / SEQ ID NO 209 (antibody, V domains shown)
VH: B12 VH with S16A, E74T, A79V
VL: B9 VL with V58I
B22: 4/94 SEQ ID NO 196 / SEQ ID NO 208 (antibody, V domains shown)
VH: B12 VH with S16A, E74T, A79V
VL: B9 VL with K1E
B23: 4/94 SEQ ID NO 194 / SEQ ID NO 208 (antibody, V domains shown)
VH: B12 VH with S16A, G66V, E74T, A79V
VL: B9 VL with K1E
B24: 4/94 SEQ ID NO 195 / SEQ ID NO 207 (antibody, V domains shown)
VH: B12 VH with S16A, D61A, G66V, E74T, A79V
VL: B9 VL
B25: 4/94 SEQ ID NO 195 / SEQ ID NO 208 (antibody, V domains shown)
VH: B12 VH with S16A, D61A, G66V, E74T, A79V
VL: B9 VL with K1E
B26: 4/94 SEQ ID NO 198 / SEQ ID NO 209 (antibody, V domains shown)
VH: B12 VH with A40R
VL: B9 VL with V58I
B27: 4/94 SEQ ID NO 197 / SEQ ID NO 209 (antibody, V domains shown)
VH: B12 VH
VL: B9 VL with V58I
B28: 4/94 SEQ ID NO 194 / SEQ ID NO 209 (antibody, V domains shown)
VH: B12 VH with S16A, G66V, E74T, A79V
VL: B9 VL with V58I
B29: 4/94 SEQ ID NO 195 / SEQ ID NO 209 (antibody, V domains shown)
VH: B12 VH with S16A, D61A, G66V, E74T, A79V
VL: B9 VL with V58I
B30: 4/94 SEQ ID NO 194 / SEQ ID NO 207 (antibody, V domains shown)
VH: B12 VH with S16A, G66V, E74T, A79V
VL: B9 VL
B31: 4/94 SEQ ID NO 200 / SEQ ID NO 207 (antibody, V domains shown)
VH: B8 VH
VL: B9 VL
B32: 4/94 SEQ ID NO 200 / SEQ ID NO 208 (antibody, V domains shown)
VH: B8 VH
VL: B9 VL with K1E
B33: 4/94 SEQ ID NO 200 / SEQ ID NO 209 (antibody, V domains shown)
VH: B8 VH
VL: B9 VL with V58I
B34: Trastuzumab HC x Pertuzumab (Tras.L3)(QM) LC (antibody, V domains shown)
VH: not shown
VL: B1 VL

Numbering of substitutions follows the chain as printed.

For the first experiment, the target named is T1, Her2 ECD (amino acids 1 to 629 of matured HER2 with C-terminal avi-tag and His-tag) (human, UniProt P04626 23-652).
T1 construct: also called purified Her2
The experiment is described as follows: SPR, Fab from bacterial supernatant captured, Her2 analyte. A general note: Surface plasmon resonance follows binding to a sensor surface in real time, without labels.
For B1, the Kd came to 1 nM.

The molecule B2 yielded a Kd of 3 nM.

In the case of B3, the Kd is 1 nM.

B4: the Kd was 1 nM.

The next experiment addresses T1, Her2 ECD (amino acids 1 to 629 of …). The experiment can be described thus: SPR, Ab captured, Her2 analyte.
B5 yielded a Kd of 4.96 nM, a koff of 0.00209 s⁻¹ and a kon of 422000 M⁻¹ s⁻¹.

B6 had a dissociation constant (Kd) of 72.5 nM, a koff of 0.0236 s⁻¹ and a kon of 325000 M⁻¹ s⁻¹.

For another experiment the target is unchanged. The experiment can be described thus: SPR, Ab captured, Her2 analyte. This is another data set of the same source.
In turn, B5 returned a Kd of 26.7 nM, a koff of 0.00173 s⁻¹ and a kon of 64700 M⁻¹ s⁻¹.

As for B6, the Kd came to 1090 nM, the koff turned out to be 0.05 s⁻¹ and the kon came out at 41900 M⁻¹ s⁻¹.

The target in another experiment is T2, human transferrin receptor (recombinant, for surface plasmon resonance) (human, UniProt P02786 89-760).
T2 construct: also called huTfR; human transferrin receptor-biotinylated
T2 sequence (P02786 89-760 limits assumed): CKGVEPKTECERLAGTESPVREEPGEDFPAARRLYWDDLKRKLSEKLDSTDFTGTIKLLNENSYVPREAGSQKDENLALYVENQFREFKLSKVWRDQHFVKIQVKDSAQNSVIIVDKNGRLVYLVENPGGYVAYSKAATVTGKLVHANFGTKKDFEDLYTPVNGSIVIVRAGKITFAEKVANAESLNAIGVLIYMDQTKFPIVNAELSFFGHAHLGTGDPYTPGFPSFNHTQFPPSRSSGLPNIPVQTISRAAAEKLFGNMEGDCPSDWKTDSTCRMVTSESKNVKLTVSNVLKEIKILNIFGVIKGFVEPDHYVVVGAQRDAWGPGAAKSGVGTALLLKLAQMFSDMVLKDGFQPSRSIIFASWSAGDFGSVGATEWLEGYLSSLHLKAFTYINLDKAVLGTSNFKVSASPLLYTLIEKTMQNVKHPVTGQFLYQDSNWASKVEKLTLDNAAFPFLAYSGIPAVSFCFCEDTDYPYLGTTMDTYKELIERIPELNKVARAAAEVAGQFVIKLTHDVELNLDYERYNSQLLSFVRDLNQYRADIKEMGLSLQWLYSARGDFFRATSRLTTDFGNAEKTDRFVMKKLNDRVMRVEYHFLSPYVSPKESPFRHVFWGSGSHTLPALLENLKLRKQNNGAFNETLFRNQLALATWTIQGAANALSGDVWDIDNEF
The experiment is described as follows: SPR.
For B7, the off-rate (koff) stood at 0.000381 s⁻¹.

On to B8, for which the koff worked out at 0.000232 s⁻¹.

B9: the koff turned out to be 0.000527 s⁻¹.

On to B10, for which the koff worked out at 0.00055 s⁻¹.

On to B11, for which the koff was 0.000552 s⁻¹.

As for B12, the koff came to 0.000657 s⁻¹.

Turning to B13, the koff worked out at 0.000274 s⁻¹.

With B14, the koff is 0.000486 s⁻¹.

As for B15, the koff was determined as 0.00043 s⁻¹.

B16: the koff was 0.000717 s⁻¹.

Regarding B17, the koff was found to be 0.000684 s⁻¹.

With B18, the koff is 0.000717 s⁻¹.

For the molecule B19, the koff is 0.000683 s⁻¹.

For the molecule B20, the koff worked out at 0.000703 s⁻¹.

With B21, the koff was found to be 0.000452 s⁻¹.

With B22, the koff was 0.000434 s⁻¹.

Take B23: the koff was determined as 0.000476 s⁻¹.

Turning to B24, the koff turned out to be 0.000426 s⁻¹.

Regarding B25, the koff turned out to be 0.000415 s⁻¹.

As to B26, the koff was determined as 0.000728 s⁻¹.

For the molecule B27, the koff amounted to 0.000705 s⁻¹.

In the case of B28, the koff was 0.000448 s⁻¹.

On to B29, for which the koff came to 0.000438 s⁻¹.

For B30, the koff was 0.000454 s⁻¹.

For the molecule B31, the koff was found to be 0.000299 s⁻¹.

B32: the koff is 0.000306 s⁻¹.

On to B33, for which the off-rate (koff) was determined as 0.000326 s⁻¹.

A further experiment has as its target T1, Her2 ECD (amino acids 1 to 629 of …). The experiment is described as follows: SPR, Ab captured, Her2 analyte. The source holds these as a separate data set.
The molecule B34 came in with a Kd of 0.202 nM, a koff of 5.42e-05 s⁻¹ and a kon of 269000 M⁻¹ s⁻¹.
